The target of this experiment is T1, Plasmalemma vesicle-associated protein (PV1), recombinant mouse (Mus musculus, UniProt Q91VC4).
T1 construct: plasmalemma vesicle-associated protein (PV1), mouse, recombinant; also called mouse PV1; recombinant mouse PV1
Briefly: SPR; ProteOn XPR36; mouse PV1 amine-coupled to a GLC chip at ~200 RU; antibodies injected at 100 μl/min; 25 °C, PBS pH 7.2; 1:1 Langmuir model. The settings on record: both partners purified.

T1 sequence (Q91VC4 whole entry): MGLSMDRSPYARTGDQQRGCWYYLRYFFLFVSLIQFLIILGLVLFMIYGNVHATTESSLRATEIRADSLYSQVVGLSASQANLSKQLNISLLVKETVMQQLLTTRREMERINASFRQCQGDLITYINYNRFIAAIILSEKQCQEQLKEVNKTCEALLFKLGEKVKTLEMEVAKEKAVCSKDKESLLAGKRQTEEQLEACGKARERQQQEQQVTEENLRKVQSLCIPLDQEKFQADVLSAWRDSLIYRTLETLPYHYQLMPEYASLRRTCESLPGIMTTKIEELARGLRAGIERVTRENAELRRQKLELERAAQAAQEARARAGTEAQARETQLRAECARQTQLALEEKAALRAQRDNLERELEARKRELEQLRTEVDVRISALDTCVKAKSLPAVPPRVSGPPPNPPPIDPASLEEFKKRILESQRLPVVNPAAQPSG

B1: αPV1 IgG (de novo sequenced Meca32 variant as a human IgG1 chimeric antibody) (antibody, V domains shown)
VH: EVQLVESGGGLVQPGRSMKLSCAASGFTFSDYYMAWVRQAPKKGLEWVASISYEGNKTYYGDSVKGRFTISRDNAKSILYLQMNSLKSEDTATYYCARQSYSSYLFDYWGQGVM
VL: DIQMTQTPSSMSASLGERVTLSCGTSQGVNLFLNWYQQKPDGTIKPLIFFTSHLQSGVPSRFSGSGSGTAYSLTISSLEPEDFAVYYCQQYDSSPPTFGGGTKLYLK
notes: human IgG1 heavy-chain constant region (chimeric antibody); VL of the chosen Meca32 variant; light-chain constant region; Human IgG1 chimera of rat variable domains; also called anti-PV1 antibody; αPV1 mAb; source: HEK293F, transient, purified (protein A; SEC if necessary)
For orientation: Kd means the constant that tells how readily two partners part at equilibrium. With B1, the Kd worked out at 500 pM.

Source of the values: publication PMC6405929, “Targeted drug delivery via caveolae-associated protein PV1 improves lung fibrosis” (Communications Biology, 2019).
